In patent publication US20120316071A1 (published 2012):
Where a chain is given by its changes, count along the chain named. Names and notes keep the numbering of the source.

T1: rHuman Erythropoietin R/Fc Chimera, CF (R&D Systems Cat#963-ER) (human, UniProt P19235 25-250)
T1 construct: Bought recombinant Fc chimera; also called EPO R; EPO R/Fc; Fc part of the bought chimera not given
T1 sequence (looked up): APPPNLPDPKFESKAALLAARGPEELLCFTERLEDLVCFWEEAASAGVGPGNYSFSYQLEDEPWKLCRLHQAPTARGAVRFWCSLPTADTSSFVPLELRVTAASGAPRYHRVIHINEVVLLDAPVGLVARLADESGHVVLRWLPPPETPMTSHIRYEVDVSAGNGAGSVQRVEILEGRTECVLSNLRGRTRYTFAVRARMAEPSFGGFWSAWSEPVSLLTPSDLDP

B1: Fab VH1-46_IGHD6-6*01_IGHJ1*01 S102A/S103P/S104F/H111F (APFF) & L6_IGKJ1*01 S30C (Fab, V domains shown)
VH: QVQLVQSGAEVKKPGASVKVSCKASGYTFTSYYMHWVRQAPGQGLEWMGIINPSGGSTSYAQKFQGRVTMTRDTSTSTVYMELSSLRSEDTAVYYCAREEYAPFSAEYFQFWGQGTLVTVSS
VL: EIVLTQSPATLSLSPGERATLSCRASQSVCSYLAWYQQKPGQAPRLLIYDASNRATGIPARFSGSGSGTDFTLTISSLEPEDFAVYYCQQRSNWPPWTFGQGTKVEIKR
notes: Fab; VH cloned into Plasmid A (CH1, His6 and Flag tags) and VL into Plasmid C (kappa CL); also called APFF / S30C
B2: Fab VH1-46_IGHD6-6*01_IGHJ1*01 S102A/S103P/S104F/H111F (APFF) & L6_IGKJ1*01 S28W (Fab, V domains shown)
VH: B1 VH
VL: B1 VL with S28W, C30S
notes: Fab; VH cloned into Plasmid A (CH1, His6 and Flag tags) and VL into Plasmid C (kappa CL); also called APFF / S28W
B3: Fab VH1-46_IGHD6-6*01_IGHJ1*01 S102A/S103P/S104F/H111F (APFF) & L6_IGKJ1*01 S28M (Fab, V domains shown)
VH: B1 VH
VL: B1 VL with S28M, C30S
notes: Fab; VH cloned into Plasmid A (CH1, His6 and Flag tags) and VL into Plasmid C (kappa CL); also called APFF / S28M
B4: Fab VH1-46_IGHD6-6*01_IGHJ1*01 S102A/S103P/S104F/H111F (APFF) & L6_IGKJ1*01 S28I (Fab, V domains shown)
VH: B1 VH
VL: B1 VL with S28I, C30S
notes: Fab; VH cloned into Plasmid A (CH1, His6 and Flag tags) and VL into Plasmid C (kappa CL); also called APFF / S28I
B5: Fab VH1-46_IGHD6-6*01_IGHJ1*01 S102A/S103P/S104F/H111F (APFF) & L6_IGKJ1*01 S30L (Fab, V domains shown)
VH: B1 VH
VL: B1 VL with C30L
notes: Fab; VH cloned into Plasmid A (CH1, His6 and Flag tags) and VL into Plasmid C (kappa CL); also called APFF / S30L
B6: Fab VH1-46_IGHD6-6*01_IGHJ1*01 S102A/S103P/S104F/H111F (APFF) & L6_IGKJ1*01 S30D (Fab, V domains shown)
VH: B1 VH
VL: B1 VL with C30D
notes: Fab; VH cloned into Plasmid A (CH1, His6 and Flag tags) and VL into Plasmid C (kappa CL); also called APFF / S30D
B7: Fab VH1-46_IGHD6-6*01_IGHJ1*01 S102A/S103P/S104F/H111F (APFF) & L6_IGKJ1*01 S28R (Fab, V domains shown)
VH: B1 VH
VL: B1 VL with S28R, C30S
notes: Fab; VH cloned into Plasmid A (CH1, His6 and Flag tags) and VL into Plasmid C (kappa CL); also called APFF / S28R
B8: Fab VH1-46_IGHD6-6*01_IGHJ1*01 S102A/S103P/S104F/H111F (APFF) & L6_IGKJ1*01 (Fab, V domains shown)
VH: B1 VH
VL: not shown
notes: Tested as Fab made in E. coli: VH in Plasmid A (CH1, His6 and Flag tags), VL in Plasmid C (kappa CL); also called APFF / parent; H:APFF & L:wt
B9: Fab VH1-46_IGHD6-6*01_IGHJ1*01 S102A & L6_IGKJ1*01 (Fab, V domains shown)
VH: B1 VH with P103S, F104S, F111H
VL: not shown
notes: Fab; heavy chain CDR3 NNK mutant of the parent; Constant parts as for the parent Fab
B10: Fab VH1-46_IGHD6-6*01_IGHJ1*01 S102G & L6_IGKJ1*01 (Fab, V domains shown)
VH: B1 VH with A102G, P103S, F104S, F111H
VL: not shown
notes: as for B9
B11: Fab VH1-46_IGHD6-6*01_IGHJ1*01 S102I & L6_IGKJ1*01 (Fab, V domains shown)
VH: B1 VH with A102I, P103S, F104S, F111H
VL: not shown
notes: as for B9
B12: Fab VH5-51_IGHD5-18*01>3_IGHJ4*01 G100K/G104T (H:KT) & V3-4_IGLJ1*01 (Fab, V domains shown)
VH: EVQLVQSGAEVKKPGESLKISCKGSGYSFTSYWIGWVRQMPGKGLEWMGIIYPGDSDTRYSPSFQGQVTISADKSISTAYLQWSSLKASDTAMYYCARRKYSYTYDYFDYWGQGTLVTVSS
VL: QTVVTQEPSFSVSPGGTVTLTCGLSSGSVSTSYYPSWYQQTPGQAPRTLIYSTNTRSSGVPDRFSGSILGNKAALTITGAQADDESDYYCVLYMGSGISYVFGTGTKVTVL
notes: Tested as purified Fab made in E. coli; also called H:KT & L:wt; KT double mutant
B13: Fab VH5-51_IGHD5-18*01>3_IGHJ4*01 G100K/G104T (H:KT) & V3-4_IGLJ1*01 V91A (Fab, V domains shown)
VH: B12 VH
VL: B12 VL with V91A
notes: Fab; CH1 (His6/Flag tags, plasmid A) and lambda CL (plasmid E) as for the parent
B14: Fab VH5-51_IGHD5-18*01>3_IGHJ4*01 G100K/G104T (H:KT) & V3-4_IGLJ1*01 Y93A (Fab, V domains shown)
VH: B12 VH
VL: B12 VL with Y93A
notes: as for B13
B15: Fab VH5-51_IGHD5-18*01>3_IGHJ4*01 G100K/G104T (H:KT) & V3-4_IGLJ1*01 M94A (Fab, V domains shown)
VH: B12 VH
VL: B12 VL with M94A
notes: as for B13
B16: Fab VH5-51_IGHD5-18*01>3_IGHJ4*01 G100K/G104T (H:KT) & V3-4_IGLJ1*01 S99A (Fab, V domains shown)
VH: B12 VH
VL: B12 VL with S99A
notes: as for B13
B17: Fab VH5-51_IGHD5-18*01>3_IGHJ4*01 G100K/G104T (H:KT) & V3-4_IGLJ1*01 S96A (Fab, V domains shown)
VH: B12 VH
VL: B12 VL with S96A
notes: as for B13
B18: Fab VH5-51_IGHD5-18*01>3_IGHJ4*01 G100K/G104T (H:KT) & V3-4_IGLJ1*01 G95A (Fab, V domains shown)
VH: B12 VH
VL: B12 VL with G95A
notes: as for B13
B19: Fab VH5-51_IGHD5-18*01>3_IGHJ4*01 G100K/G104T (H:KT) & V3-4_IGLJ1*01 L92A (Fab, V domains shown)
VH: B12 VH
VL: B12 VL with L92A
notes: as for B13
B20: Fab VH5-51_IGHD5-18*01>3_IGHJ4*01 G100K/G104T (H:KT) & V3-4_IGLJ1*01 G97A (Fab, V domains shown)
VH: B12 VH
VL: B12 VL with G97A
notes: as for B13
B21: Fab VH5-51_IGHD5-18*01>3_IGHJ4*01 G100K/G104T (H:KT) & V3-4_IGLJ1*01 I98A (Fab, V domains shown)
VH: B12 VH
VL: B12 VL with I98A
notes: as for B13

molecular target: T2, rHuman ErbB2/Fc Chimera, CF (R&D Systems Cat#1129-ER) (human, UniProt P04626 23-652); assay: ECL multispot (MSD), antigen spotted, Fab in solution;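 further: purified Fab incubated 1 h at 20 °C on antigen-spotted wells, bound Fab detected via TAG detection antibody, ECL compared with each well's blank, ratio of 4 or above scored as hit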
T2 construct: Bought recombinant Fc chimera; also called human epidermal growth factor 2 receptor; Fc part of the bought chimera not given

ECL signal | Binder
1010 | B1
316 | B2
271 | B3
265 | B4
270 | B5
284 | B6
318 | B7

molecular target: T3, rHuman EGF R/Fc Chimera, CF (R&D Systems Cat#344-ER) (human, UniProt P00533 25-645); assay: as above
T3 construct: Bought recombinant Fc chimera; also called epidermal growth factor receptor; Fc part of the bought chimera not given

ECL signal | Binder
1190 | B1
283 | B2
320 | B3
386 | B4
406 | B5
325 | B6
403 | B7

molecular target: T4, rHuman HGF R/c-MET/Fc Chimera, CF (R&D Systems Cat#358-MT/CF) (human, UniProt P08581 25-932); assay: as above
T4 construct: Bought recombinant Fc chimera; also called HGF R/Fc; hepatocyte growth factor receptor; Fc part of the bought chimera not given

ECL signal | Binder
1230 | B1
414 | B2
305 | B3
369 | B4
315 | B5
312 | B6
378 | B7

molecular target: T5, rHuman Notch-1/Fc Chimera, CF (R&D Systems Cat#3647-TK) (human, UniProt P46531 19-526); assay: as above
T5 construct: Bought recombinant Fc chimera; Fc part of the bought chimera not given

ECL signal | Binder
1470 | B1
349 | B2
382 | B3
442 | B4
389 | B5
415 | B6
425 | B7

molecular target: T6, rHuman CD44/Fc Chimera, CF (R&D Systems Cat#3660-CD) (human, UniProt P16070 21-220); assay: as above
T6 construct: Bought recombinant Fc chimera; Fc part of the bought chimera not given

ECL signal | Binder
1080 | B1
404 | B2
313 | B3
412 | B4
295 | B5
434 | B6
378 | B7

molecular target: T7, rHuman IGF-1 sR, (IGF-1 sR), CF (R&D Systems Cat#391-GR) (human, UniProt P08069 31-932); assay: as above
T7 construct: Bought recombinant soluble receptor; The column head prints only 'IGF-1'; also called insulin-like growth factor-1 soluble receptor

ECL signal | Binder
1030 | B1
489 | B2
341 | B3
353 | B4
332 | B5
357 | B6
437 | B7

molecular target: T8, rHuman P-Cadherin/Fc Chimera, CF (R&D Systems Cat#861-PC) (human, UniProt P22223 108-654); assay: as above
T8 construct: Bought recombinant Fc chimera; Fc part of the bought chimera not given

ECL signal | Binder
1690 | B1
385 | B2
410 | B3
416 | B4
351 | B5
543 | B6
395 | B7

molecular target: T1, rHuman Erythropoietin R/Fc Chimera, CF …; assay: as above

ECL signal | Binder
1790 | B1
489 | B2
360 | B3
450 | B4
540 | B5
496 | B6
542 | B7

molecular target: T9, rHuman ErbB2/Fc Chimera, CF (R&D Systems Cat#1129-ER) (human, UniProt P04626 23-652); assay: ECL multispot (MSD) binding assay, antigen spotted on plate;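 further: purified Fab incubated 1 h at 20 °C on antigen spots, detected with TAG-labelled antibody, electrochemiluminescence compared with each well's blank, signal-to-blank ratio ≥4 counted as hit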
T9 construct: Bought recombinant protein; also called human epidermal growth factor 2 receptor

ECL signal | Binder
312 | B8

molecular target: T10, rHuman EGF R/Fc Chimera, CF (R&D Systems Cat#344-ER) (human, UniProt P00533 25-645); assay: as above
T10 construct: Bought recombinant protein; also called epidermal growth factor receptor

ECL signal | Binder
370 | B8

molecular target: T11, rHuman HGF R/c-MET/Fc Chimera, CF (R&D Systems Cat#358-MT/CF) (human, UniProt P08581 25-932); assay: as above
T11 construct: Bought recombinant protein; also called HGF R/Fc; hepatocyte growth factor receptor

ECL signal | Binder
347 | B8

molecular target: T12, rHuman IGF-1 sR, (IGF-1 sR), CF (R&D Systems Cat#391-GR) (human, UniProt P08069 31-932); assay: as above
T12 construct: Bought recombinant soluble receptor; also called insulin-like growth factor-1 soluble receptor

ECL signal | Binder
433 | B8

molecular target: T13, rHuman P-Cadherin/Fc Chimera, CF (R&D Systems Cat#861-PC) (human, UniProt P22223 108-654); assay: as above
T13 construct: Bought recombinant protein

ECL signal | Binder
450 | B8

molecular target: T14, Recombinant Human DLL4 (R&D Systems Cat#1506-D4/CF) (human, UniProt Q9NR61 27-524); assay: as above
T14 construct: Bought recombinant protein; also called delta-like protein 4; rHuman DLL4

ECL signal | Binder
172000 | B8

molecular target: T15, Recombinant Human DLL4 (R&D Systems Cat#1506-D4/CF) (human, UniProt Q9NR61 27-524); assay: ECL 96-well plate assay; 0.02 uM Fab, plate coated with 30 ug/mL DLL4
T15 construct: Bought recombinant protein; also called delta-like protein 4; rHuman DLL4

Signal/Noise | Binder
51.7 | B9
5.1 | B10
35.3 | B11

molecular target: T15, Recombinant Human DLL4 (R&D Systems …); assay: ECL 96-well plate assay; 0.004 uM Fab, plate coated with 15 ug/mL DLL4

Signal/Noise | Binder
69.8 | B9
5.2 | B10
34.5 | B11

molecular target: T16, Recombinant Human DLL4 (R&D Systems Cat#1506-D4/CF) (human, UniProt Q9NR61 27-524); assay: ECL (MSD) multispot binding assay, immobilised recombinant human DLL4, Fab at 0.04 uM
T16 construct: also called delta-like protein 4; Delta-like 4

ECL Signal/Noise | Binder
49.2 | B12
48.5 | B13
21.3 | B14
53.1 | B15
41 | B16
57.9 | B17
34.4 | B18
30.3 | B19
24.7 | B20
32.6 | B21
